Test results as given in the supplement of paper PMC11865577.

Columns and labels:
Assay in all cases: pull-down binding Z-score (relative to library population); higher = stronger binding
Settings in all cases: RNA library: Library-2
[1] = system: TO-N3-2 (biotin conjugate)
Method in brief: (§1)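 Cy5- or Cy3-end-labelled RNA library (1 μg) was heat-folded in phosphate/NaCl/KCl buffer and incubated 60 min at 25 °C with streptavidin beads carrying 100 pmol biotin-conjugated small molecule. After three washes, bound RNA was eluted in hot SDS and hybridised 20 h at 55.5 °C to a DNA barcode microarray. Binding was scored by subtracting a beads-only control, averaging barcoded replicate probes after dropping highest and lowest, and converting to a Z-score against library mean and standard deviation.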

[2] = system: TO-N3 (biotin conjugate)
Method in brief: as §1

[3] = system: TO-3-N3-2 (biotin conjugate)
Method in brief: as §1

[4] = system: TO-3-N3 (biotin conjugate)
Method in brief: as §1

Sequence	pull-down binding Z-score [1]	pull-down binding Z-score [2]	pull-down binding Z-score [3]	pull-down binding Z-score [4]
GCGCGGCCAGAAACUGGCGGCGC [mismatch-GG]	-0.598	-0.309	-0.302	-0.0922
GCGCGGCCAGAAACUGGCUGCGC [mismatch-GU]	-0.388	0.831	0.0256	0.969
GCGCUACUGCAACGAUACCGAUACAAGCCUCACUCCCUUUCGGAUGGCUUAUUGUUGGCGUUGCACUUCUUGCUGUUUUUCAGAGCGC	0.285	-0.282	0.232	-0.679
GCGCUGCCAGAAACUGGCAAAAGCGC [bulge-AAA]	-0.689	-0.936	-0.295	-0.765
GCGCUGCCAGAAACUGGCAAAGCGC [bulge-AA]	-0.0432	-0.403	-0.00126	-0.184
GCGCUGCCAGAAACUGGCAAGCGC [bulge-A]	-1.12	-0.493	-0.541	-0.289
GCGCUGCCAGAAACUGGCAGCGC [full-UA]	-0.943	-0.599	-0.274	-0.337
GCGCUGCCAGAAACUGGCCAGCGC [bulge-C]	-0.547	-0.667	-0.512	-0.488
GCGCUGCCAGAAACUGGCCCAGCGC [bulge-CC]	0.352	-0.282	-0.288	-0.161
GCGCUGCCAGAAACUGGCCCCAGCGC [bulge-CCC]	0.6	-0.283	-0.182	-0.229
GCGCUGCCAGAAACUGGCCGCGC [mismatch-UC]	-0.896	-0.905	-0.66	-0.648
GCGCUGCCAGAAACUGGCGAGCGC [bulge-G]	-0.578	-0.593	-0.354	-0.426
GCGCUGCCAGAAACUGGCGGAGCGC [bulge-GG]	-0.22	-0.873	-0.672	-0.714
GCGCUGCCAGAAACUGGCGGCGC [mismatch-UG]	-0.856	0.624	-0.0108	0.983
GCGCUGCCAGAAACUGGCGGGAGCGC [bulge-GGG]	0.604	0.688	0.00655	0.781
GCGCUGCCAGAAACUGGCUAAGCGC [bulge-UA]	-0.61	-0.911	-0.353	-0.669
GCGCUGCCAGAAACUGGCUAGCGC [bulge-U]	-0.75	-0.0999	-0.328	0.183
GCGCUGCCAGAAACUGGCUCAGCGC [bulge-UC]	-0.361	-0.584	-0.576	-0.319
GCGCUGCCAGAAACUGGCUGAGCGC [bulge-UG]	-0.14	0.392	-0.0129	0.553
GCGCUGCCAGAAACUGGCUGCGC [mismatch-UU]	-0.689	-0.231	-0.405	0.141
GCGCUGCCAGAAACUGGCUUAAGCGC [bulge-UUA]	-0.601	-0.128	-0.252	0.176
GCGCUGCCAGAAACUGGCUUAGCGC [bulge-UU]	0.338	0.691	-0.0172	0.63
GCGCUGCCAGAAACUGGCUUCAGCGC [bulge-UUC]	-0.304	-0.796	-0.243	-0.611
GCGCUGCCAGAAACUGGCUUGAGCGC [bulge-UUG]	0.434	0.932	0.543	1.04

Sequence	pull-down binding Z-score [1]	pull-down binding Z-score [2]	pull-down binding Z-score [3]	pull-down binding Z-score [4]
GCGCUGCCAGAAACUGGCUUUAGCGC [bulge-UUU]	-0.562	-0.24	-0.158	-0.00635
GCGCUUCAGCGUUCUUCGGAAUGUCGCGC	-0.654	-0.787	-0.453	-0.429
GCGCUUUAGGUCUACACGGGCCGAAGCUAACGCGUUAAGCGC [3-way model-5_mrRNA]	0.245	0.0607	0.0632	0.146
GCUAAAGAUACUACUGAAGCCUUUGAAAAAAUGGUUUCACUACUUUCUGUUUUGC [SHAPE_invitro_SARS-CoV-2_Motif_217]	-0.245	0.166	0.0624	0.0938
GCUAAAUUGUUACAUAAACCUAUUGUUUGGCAUGUUAACAAUGC [SHAPE_invitro_SARS-CoV-2_Motif_124]	-1.24	-0.96	-0.265	-0.783
GCUAAAUUGUUACAUAAACCUAUUGUUUGGCAUGUUAACAAUGCAACUAAUAAAGCCACGUAUAAACCAAAUACCUGGUGUAUACGUUGUCUUUGGAGC	-1.05	-1.4	-0.0887	-1.1
GCUAACAAACAUGCUGAUUUUGACACAUGGUUUAGCCAGCGUGGUGGUAGU	0.519	0.157	0.101	-0.205
GCUAGAAAAUCAGC [SHAPE_invivo_SARS-CoV-2_Motif_531]	-0.164	-0.0963	0.246	-0.186
GCUAGCUCUUGGAGGUUCCGUGGCUAUAAAGAUAACAGAACAUUCUUGGAAUGCUGAUCUUUAUAAGCUCAUGGGACACUUCGCAUGGUGGACAGC	0.936	0.974	0.121	0.837
GCUAGUCUUAAUGGAGUCACAUUAAUUGGAGAAGC	0.337	0.474	0.112	0.378
GCUAGUGGGGGACAACCAAUCACUAAUUGUGUUAAGAUGUUGUGUACACACACUGGU	0.564	1.03	0.649	0.789
GCUAUAUGAUGC [IAV_invivo_PA_3_Motif_14+IAV_invivo_PA_3_Motif_14]	-0.634	-0.106	-0.212	-0.0014
GCUAUCUAACCUUAACUUGCCUGGUUGUGAUGGU [SHAPE_invivo_SARS-CoV-2_Motif_361]	0.466	0.716	0.311	0.68
GCUAUGCAAAUGGC	-0.948	-0.847	-0.527	-0.537
GCUAUGGGUAUUAUUGCUAUGUCUGCUUUUGCAAUGAUGUUUGUCAAACAUAAGCAUGCAUUUCUCUGUUUGUUUUUGUUACCUUCUCUUGCCACUGUAGC	-0.573	-0.98	-0.526	-0.966
GCUCACCGUGCCCAGUGAGC [IAV_invivo_M1_M2_7_Motif_5+IAV_invivo_M1_M2_7_Motif_5]	-0.587	0.0761	-0.154	0.297
GCUCAGGAUGGUAAUGCUGCUAUCAGC	1.05	0.203	-0.00388	-0.137
GCUCUACAAGAUGCUUAUUACAGAGC	-0.0957	1.52	0.467	1.83
GCUCUCUGAUGC [IAV_invivo_NP_5_Motif_10+IAV_invivo_NP_5_Motif_10]	-0.464	-0.672	-0.589	-0.607
GCUGAAAUUGUUGACACUGUGAGUGCUUUGGUUUAUGAUAAUAAGCUUAAAGCACAUAAAGACAAAUCAGC	-0.342	-0.634	-0.129	-0.842
GCUGACACUACUGAUGCUGUCCGUGAUCCACAGACACUUGAGAUUCUUGACAUUACACCAUGUUCUUUUGGUGGUGUCAGU [SHAPE_invivo_SARS-CoV-2_Multi_58_ComplexLevel_1]	0.237	0.456	-0.3	-0.0653
GCUGAGGCUUCUAAGAAGCCUCGGC	-1.43	-1.05	-0.475	-0.572
GCUGAGUUGCCAUUCAGC [IAV_invivo_NA_6_Motif_18+IAV_invivo_NA_6_Motif_18]	-0.226	-0.304	-0.204	-0.302
GCUGCACAAAAAGC [IAV_invivo_NP_5_Motif_13+IAV_invivo_NP_5_Motif_13]	-0.23	-1.08	-0.544	-0.79

Sequence	pull-down binding Z-score [1]	pull-down binding Z-score [2]	pull-down binding Z-score [3]	pull-down binding Z-score [4]
GCUGGCCUUGAAGCCCCUUUUCUCUAUCUUUAUGCUUUAGUCUACUUCUUGCAGAGUAUAAACUUUGUAAGAAUAAUAAUGAGGCUUUGGCUUUGC	-0.575	-0.969	-0.413	-0.79
GCUGGUAAUGUUCAACUCAGGGUUAUUGGACAUUCUAUGC [SHAPE_invivo_SARS-CoV-2_Motif_203]	-0.0925	-0.313	-0.104	-0.362
GCUGGUCUGACUCACAUGAUGAUCUGGC [IAV_invivo_NP_5_Motif_8+IAV_invivo_NP_5_Motif_8]	0.653	-0.454	-0.265	-0.624
GCUGGUGCACUUGCCAGU [IAV_invivo_M1_M2_7_Motif_8+IAV_invivo_M1_M2_7_Motif_8]	-0.0123	-0.408	-0.545	-0.522
GCUGUAGUGUUACUAAUCCUUAUGACAGC	-0.349	-0.197	-0.242	-0.113
GCUGUGAGUUGGAUACUUACCUG [U1snRNP5ss-13]	1.38	0.947	0.194	0.0032
GCUGUUGGUACCAAUUUACCUUUACAGC [SHAPE_invitro_SARS-CoV-2_Motif_335]	-0.561	0.215	-0.037	0.416
GCUGUUUAAUAGGGGCUGAACAUGUCAACAACUCAUAUGAGUGUGACAUACCCAUUGGUGCAGGUAUAUGCGCUAGUUAUCAGACUCAGACUAAUUCUCCUCGGC	-0.00417	0.298	0.183	-0.351
GCUUCAAGAGAGC	-0.212	-0.0808	-0.171	-0.0727
GCUUCCACAAGUGCUUUUGUGGAAACUGUGAAAGGUUUGGAUUAUAAAGCAUUCAAACAAAUUGUUGAAUCCUGUGGUAAUUUUAAAGUUACAAAAGGAAAAGC	-0.348	-0.508	-0.339	-0.475
GCUUCCACUGAGAAGU [DMSMaPseq_invitro_SARS-CoV-2_Motif_384]	-1.03	-1.1	-0.576	-0.836
GCUUCUAGAAAGUGAACUCGUAAUCGGAGCUGUGAUCCUUCGUGGACAUCUUCGUAUUGCUGGACACCAUCUAGGACGC	1.23	0.335	0.191	-0.191
GCUUGAAGUGGAGC [IAV_invivo_NS1_NEP_8_Motif_14+IAV_invivo_NS1_NEP_8_Motif_14]	0.386	-0.23	-0.23	-0.454
GCUUGCAUACGUAGACCAUUCUUAUGUUGUAAAUGCUGUUACGACCAUGUCAUAUCAACAUCACAUAAAUUAGUCUUGUCUGUUAAUCCGUAUGUUUGCAAUGC [DMSMaPseq_invitro_SARS-CoV-2_Motif_294]	-0.437	-0.546	-0.304	-0.654
GCUUGGAGAAAAGC [SHAPE_invitro_SARS-CoV-2_Motif_326]	-0.491	-0.705	-0.278	-0.536
GCUUGUCACACCGUUUCUAUAGAUUAGCUAAUGAGUGUGCUCAAGU	0.588	-0.0415	-0.356	-0.601
GCUUUAGUCUACUUCUUGCAGAGUAUAAACUUUGUAAGAAUAAUAAUGAGGC [SHAPE_invitro_SARS-CoV-2_Motif_467]	-0.561	0.0166	-0.169	0.0529
GCUUUCUUUGGC [IAV_invivo_NS1_NEP_8_Motif_2+IAV_invivo_NS1_NEP_8_Motif_2]	-1.09	-0.43	-0.505	-0.0308
GCUUUGAUAUGGAACGUUAAAGAUUUCAUGUCAUUGU	-0.395	-0.204	-0.217	-0.179
GCUUUGUCCAAAAUGCCCUUAAUGGGAACGGGGAUCCAAAUAACAUGGACAAAGC [IAV_invivo_M1_M2_7_Motif_6+IAV_invivo_M1_M2_7_Motif_6]	-0.236	-0.155	0.353	0.0624
GGAAAUGAUUCC [IAV_invivo_PB2_1_Motif_4+IAV_invivo_PB2_1_Motif_4]	-1.3	-1.05	-0.712	-0.59
GGAACCUAGUAAUAGGUUUCC [DMSMaPseq_invitro_SARS-CoV-2_Motif_479]	-0.779	0.439	-0.0496	0.7
